Measurements taken from PMC8249470, “Binding of guide piRNA triggers methylation of the unstructured N-terminal region of Aub leading to assembly of the piRNA amplification complex” (Nature Communications, 2021).
Blank lines part the entries; values can stand above or below the molecule they belong to. Where no end group is shown, it is not given here. [ ]: non-standard residue; d: D form. Arg(Me2s) = CN=C(NC)NCCC[C@H](N)C(=O)O

Tests used:
[1] = biological target: T1, Krimper eTud1 (residues 272-512) (Drosophila melanogaster, UniProt A1ZAC4); test: ITC analysis of Krimper eTud1 with Ago3 or Aub peptides; assay type: binding; details: Fig. 1f
T1 construct: Krimper eTud1 (residues 272-512) was cloned into a self-modified pSumo vector; 10xHis (N, cleaved yes); yeast SUMO (N, cleaved yes); made in house; host or cells: E. coli BL21(DE3) Rosetta
T1 sequence (A1ZAC4 272-512): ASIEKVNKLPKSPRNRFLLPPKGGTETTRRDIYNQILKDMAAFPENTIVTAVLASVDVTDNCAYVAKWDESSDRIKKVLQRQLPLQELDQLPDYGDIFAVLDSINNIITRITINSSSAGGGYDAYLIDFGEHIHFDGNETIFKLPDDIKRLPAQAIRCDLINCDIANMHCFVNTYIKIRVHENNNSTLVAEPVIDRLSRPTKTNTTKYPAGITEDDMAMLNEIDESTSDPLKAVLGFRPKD
Text: However, the region of Krimper responsible for Ago3 binding remained unknown. To study the Ago3-Krimper interaction, we expressed and purified eTud1 and eTud2 domains of Krimper (Fig. 1c) and tested their binding to peptides derived from the N-terminal Ago3 sequence using isothermal titration calorimetry (ITC) (Fig. 1f and Supplementary Fig. 1a). […] Thus, the two Tudor domains of Krimper have different binding preferences ensuring that Aub and Ago3 can bind Krimper simultaneously without direct competition for a binding site.
Krimper eTud1 (residues 272-512) was cloned into a self-modified pSumo vector with 10×His tag followed by a yeast sumo sequence. The plasmid was transformed into E. coli strain BL21(DE3) Rosseta and cultured at 37 °C in LB medium. The protein expression was induced by adding IPTG to a final concentration of 0.2 mM when the OD600 reached 0.7, and the cells were cooled to 16 °C. The recombinant expressed protein was purified using a HisTrap column (GE Healthcare). The […] plus yeast sumo tag was removed by ulp1 protease digestion followed by a second step HisTrap column (GE Healthcare). The target protein was further purified using MonoQ and Superdex G75 columns (GE Healthcare).
All ITC was performed using the Malvern PEAQ ITC instrument (Malvern) in a buffer of 50 mM NaCl, 20 mM HEPES pH 7.5, and 2 mM β-mercaptoethanol. […]

[2] = biological target: Krimper eTud1 (residues 272-512) (Drosophila melanogaster) (UniProt A1ZAC4); test: ITC; Malvern PEAQ ITC; 50 mM NaCl, 20 mM HEPES pH 7.5, 2 mM β-mercaptoethanol; Krimper Tudor domain with peptides
[3] = biological target: T2, Krimper eTud1ΔC (Drosophila melanogaster, UniProt A1ZAC4); assay type: binding; details: ITC, Fig. 1f, unmethylated Ago3-2 peptide
T2 construct: Krimper contains two extended Tudor domains: eTud1(272-512) and eTud2 (562-746); made in house
Method: All ITC was performed using the Malvern PEAQ ITC instrument (Malvern) in a buffer of 50 mM NaCl, 20 mM HEPES pH 7.5, and 2 mM β-mercaptoethanol. Data analysis was performed using the Malvern data analysis software and Origin 7.0.

[4] = biological target: T3, Krimper eTud2 (residues 562-746) (Drosophila melanogaster, UniProt A1ZAC4 562-746); test: ITC; R70me2
T3 chain: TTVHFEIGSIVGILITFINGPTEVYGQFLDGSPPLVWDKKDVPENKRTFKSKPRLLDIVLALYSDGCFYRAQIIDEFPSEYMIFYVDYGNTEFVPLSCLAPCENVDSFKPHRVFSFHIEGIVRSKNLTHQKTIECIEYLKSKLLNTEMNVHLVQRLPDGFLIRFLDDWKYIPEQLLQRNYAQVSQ

[5] = biological target: T3, Krimper eTud2 (residues 562-746); test: ITC; R68me2
[6] = biological target: T3, Krimper eTud2 (residues 562-746); test: ITC; R15me2
[7] = biological target: T3, Krimper eTud2 (residues 562-746); test: ITC; R72me2

Molecule: Ago3-2 peptide (aa residues 63-78 of Ago3) (from UniProt Q7PLK0 63-78)
Kd [2]: 62.8 µM

Molecule: NISVGRGRARLIDTLK [Ago3-2]
binding affinity of eTud1 ΔC compared with eTud1 (in words) [3]: higher binding affinity

Molecule: NISVGRG[Arg(Me2s)]ARLIDTLK [Ago3-2 peptide methylated at R70]
Kd [4]: 2.2 µM

Molecule: NISVG[Arg(Me2s)]GRARLIDTLK [Ago3-2 peptide methylated at R68]
Kd [5]: 6.67 µM

More lines, now with the values ahead:

binding to eTud1 (in words) [1]: does not detectably interact
Molecule: H-NPVIARGRGRGRK-OH [Aub-1, unmethylated peptide from the N-terminal RG-repeat region of Aub used for ITC and structural analysis]

Kd [6]: 8.26 µM
Molecule: NPVIARGRGRGRK (also: symmetric dimethylarginine at R15) [Aub-R15me2 peptide]

Kd [7]: 34.5 µM
Molecule: NISVGRGRA[Arg(Me2s)]LIDTLK [Ago3-2 peptide methylated at R72]
